Substitutions are numbered along the chain they refer to.
T1: rSaWRKY1 (Solanum arcanum Peralta (accession not …, UniProt A0A1P8NTG4 1-410))
T1 sequence: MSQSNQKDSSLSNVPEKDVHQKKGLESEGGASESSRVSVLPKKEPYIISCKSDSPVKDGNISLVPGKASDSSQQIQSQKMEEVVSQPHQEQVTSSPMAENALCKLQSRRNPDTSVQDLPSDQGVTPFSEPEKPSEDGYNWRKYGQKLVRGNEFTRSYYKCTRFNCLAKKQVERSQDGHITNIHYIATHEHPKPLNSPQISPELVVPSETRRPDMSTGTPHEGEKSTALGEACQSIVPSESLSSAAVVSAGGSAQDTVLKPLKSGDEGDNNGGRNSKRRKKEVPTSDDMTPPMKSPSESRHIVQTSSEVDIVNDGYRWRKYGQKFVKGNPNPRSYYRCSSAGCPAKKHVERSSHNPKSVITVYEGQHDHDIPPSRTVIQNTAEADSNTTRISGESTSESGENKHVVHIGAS

B1: 4xW-box (dsDNA)
DNA 1: AAAAAATTGACCAAATTGACTCCAATTGACCAAATTGACCAAACACCACCTCCCACCTATAAAAAA
DNA 2: TTTTTTATAGGTGGGAGGTGGTGTTTGGTCAATTTGGTCAATTGGAGTCAATTTGGTCAATTTTTT
B2: mutated 4xW-box (4xmWbox) (dsDNA)
DNA 1: B1 DNA 1 with G9T, G18T, G28T, G37T
DNA 2: B1 DNA 2 with C30A, C39A, C49A, C58A

Biological target: T1, rSaWRKY1
Experiment: EMSA; 10 ug protein; 10x binding buffer: 0.10 mg/mL BSA, 1 mM DTT, 10 mM EDTA, 50% glycerol, 1 M KCl, 100 mM Tris-HCl pH 7.5 (stock as printed; working dilution not stated); 25 C, 30 min; 2% agarose gel, GelRed
Conditions: protein: recombinant; recombinant protein 62.6 kDa; label: none (GelRed stain); blunt

Row | Binder | binding result
1 | B1 | binds
2 | B2 | no binding
